Assay results published in US20210130452A1.
One block for each binder: values may come before it.

Experiments:
[1] = target: marmoset IL-17A (marmoset); assay: ELISA, coated IL-17A
[2] = target: human serum albumin (human) (UniProt P02768); assay: SPR (Biacore), HSA
human IL-17A (human) [3] = target: human IL-17A (human) (UniProt Q16552); assay: AlphaScreen IL17A-RA
human IL-17F (human) [4] = target: T1, human IL-17F (human) (UniProt Q96PD4); assay: AlphaScreen IL17F-RC
T1 sequence: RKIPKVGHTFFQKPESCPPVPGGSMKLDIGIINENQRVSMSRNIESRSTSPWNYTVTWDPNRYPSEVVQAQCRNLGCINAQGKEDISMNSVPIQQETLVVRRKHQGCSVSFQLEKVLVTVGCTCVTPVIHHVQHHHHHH

[5] = target: T2, marmoset IL-17F (marmoset) (UniProt A6N6I9); assay: ELISA, coated IL-17F
T2 sequence (looked up): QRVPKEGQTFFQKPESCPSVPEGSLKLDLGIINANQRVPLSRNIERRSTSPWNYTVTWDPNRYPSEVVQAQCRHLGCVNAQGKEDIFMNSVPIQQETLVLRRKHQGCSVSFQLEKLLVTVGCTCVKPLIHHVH

[6] = target: Cynomolgus monkey IL-17A (Cynomolgus monkey); assay: cell-based or functional assay
[7] = target: T3, Cynomolgus monkey IL-17F (Cynomolgus monkey) (UniProt G7P4V0); assay: cell-based or functional assay
T3 sequence: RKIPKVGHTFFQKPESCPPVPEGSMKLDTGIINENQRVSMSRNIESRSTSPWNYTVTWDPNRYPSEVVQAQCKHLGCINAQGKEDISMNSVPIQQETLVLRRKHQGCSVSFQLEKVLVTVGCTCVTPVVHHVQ

human IL-17A (human) [8] = target: human IL-17A (human) (UniProt Q16552); assay: cell-based or functional assay
[9] = target: human IL-17A/F heterodimer (human) (UniProt Q16552); assay: cell-based or functional assay
human IL-17F (human) [10] = target: T1, human IL-17F (human); assay: cell-based or functional assay
human IL-17A (human) [11] = target: human IL-17A (human) (UniProt Q16552); assay: AlphaScreen IL17A-RC
[12] = target: human IL-17A/F heterodimer (human) (UniProt Q16552); assay: AlphaScreen IL17A/F-RC
[13] = target: human IL-17A/F heterodimer (human) (UniProt Q16552); assay: AlphaScreen IL17A/F-RA
[14] = target: human IL-17A/F heterodimer (human) (UniProt Q16552); assay: AlphaScreen IL17A/F-RA + HSA
human IL-17A (human) [15] = target: human IL-17A (human) (UniProt Q16552); assay: AlphaScreen IL17A-RA + HSA
human IL-17F (human) [16] = target: T1, human IL-17F (human); assay: AlphaScreen IL17F-RC + HSA
human IL-17F (human) [17] = target: T1, human IL-17F (human); assay: AlphaScreen IL17F-RA

Sequence of human IL-17A/F heterodimer (human) (Q16552 24-155 limits assumed, one chain of several): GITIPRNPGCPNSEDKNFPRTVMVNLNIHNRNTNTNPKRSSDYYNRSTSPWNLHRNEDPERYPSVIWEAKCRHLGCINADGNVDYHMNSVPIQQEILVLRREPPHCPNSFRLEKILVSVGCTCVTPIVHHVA
Sequence of Cynomolgus monkey IL-17A (Cynomolgus monkey) (chain, as listed by the source): as the sequence (Q16552 24-155 limits assumed, one chain of several) above, with T3A, P8S, N34S, I77V, N78K, P104R counted along it
Sequence of human IL-17A (human) (Q16552 other isoform, or with tags, fused parts or gaps): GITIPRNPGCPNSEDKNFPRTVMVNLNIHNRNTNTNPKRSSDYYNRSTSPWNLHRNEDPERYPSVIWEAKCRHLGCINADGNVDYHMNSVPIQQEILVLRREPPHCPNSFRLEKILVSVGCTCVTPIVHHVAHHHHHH
Sequence of marmoset IL-17A (marmoset) (chain, as listed by the source limits assumed): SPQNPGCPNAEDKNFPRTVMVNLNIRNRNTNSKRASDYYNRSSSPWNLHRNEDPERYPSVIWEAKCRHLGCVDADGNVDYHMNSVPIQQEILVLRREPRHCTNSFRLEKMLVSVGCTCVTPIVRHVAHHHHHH

OD [1]: 0.186 OD
B1: 07B11 (VHH)
VHH: EVQLVESGGGLVQAGGSLRLSCVASGRAFSSYVMGWFRQAPGMEREFVALIRWSDGITGYVDSVKGRFTISRDNAKNTVYLQMNSLKPEDTAVYYCAAAVRPGDYDYWGQGTQVTVSS

OD [1]: 0.122 OD
B2: 24G10 (VHH)
VHH: EVQLVESGGGLVQAGGSLRLSCGAAGGTFSSYATGWFRQAPGKEREFVAVFRWSDSHTAYADSVKGRFTISRDGAKNTLYLQMSSLKPEDTAIYYCTTATRPGEWDYWGQGTQVTVSS

koff [2]: 0.0061 s⁻¹
IC50 (human IL-17A (human) [3]): 0.045 nM
IC50 (human IL-17F (human) [4]): 0.048 nM
B3: IL17MS0110 (bispecific antibody, part only; not given: linkers and anti-albumin Nanobody, not shown: small tags and cut ends)
chain, part: EVQLVESGGGLVQAGGSQRLSCTASGTIVNIHVMGWYRQAPGKQRELVALIFSGGSADYADSVKGRFTISRDNAKNTVYLEMNSLKAEDTAVYYCAAEIGYYSGGTYYSSEAHWGQGTQVTVSSEVQLVESGGGLVQAGGSLRLSCAASGRTFSSYVVGWFRQAPGKEREFIGAISGSGDSIYYAVSEKDRFTISRDNGKNTLYLQMSSLKAEDTAVYYCTADQEFGYLRFGRSEYWGQGTQVTVSS

OD [5]: 0.0525 OD
B4: 17C01 (VHH)
VHH: EVQLVESGGRLVQAGGSLRLPCAASGRTFTSYPMGWFRQAPGKEREFVAAISMSGDDAAYADFVRGRFTISRDDARNTVYLHMTSLKPEDTAVYYCAARTSYDGTYDYIDDYSYWGQGTQVTVSS

Emax, Cyno IL17A, HT-1080 bioassay [6]: 98%
IC50, Cyno IL17A, HT-1080 bioassay [6]: 0.37 nM
Emax, Cyno IL17F, HT-1080 bioassay [7]: 103%
IC50, Cyno IL17F, HT-1080 bioassay [7]: 5 nM
B5: SH-Fc-(GS)2-13B03 (Fc fusion, not shown: a dimerising Fc or GST; small tags and cut ends)
chain: EVQLVESGGGSVQAGDSLRLSCAASGRANSINWFGWFRQTPGKEREFVAGIRWSDAYTEYANSVKGRFTISRDNAKNTVDLQMDSLKPEDTAVYYCVLDLSTVRYWGQGTQVTVSS

Emax, hIL-17A induced IL-6, HT-1080, 100 µM HSA (human IL-17A (human) [8]): 98%
Emax, hIL-17A induced IL-6, HT-1080, without HSA (human IL-17A (human) [8]): 105%
IC50, hIL-17A induced IL-6, HT-1080, 100 µM HSA (human IL-17A (human) [8]): 1.95 nM
IC50, hIL-17A induced IL-6, HT-1080, without HSA (human IL-17A (human) [8]): 0.83 nM
Emax, hIL-17A/F induced IL-6, HT-1080, 100 µM HSA [9]: 72%
IC50, hIL-17A/F induced IL-6, HT-1080, 100 µM HSA [9]: 1.47 nM
Emax, hIL-17F induced IL-6, HT-1080, 100 µM HSA (human IL-17F (human) [10]): 85%
Emax, hIL-17F induced IL-6, HT-1080, without HSA (human IL-17F (human) [10]): 102%
IC50, hIL-17F induced IL-6, HT-1080, 100 µM HSA (human IL-17F (human) [10]): 8.5 nM
IC50, hIL-17F induced IL-6, HT-1080, without HSA (human IL-17F (human) [10]): 7.35 nM
IC50 (human IL-17A (human) [11]): 0.367 nM
IC50 [12]: 0.051 nM
koff [2]: 0.0059 s⁻¹
IC50 (human IL-17A (human) [3]): 0.161 nM
IC50 [13]: 0.128 nM
IC50 [14]: 0.095 nM
IC50 (human IL-17F (human) [4]): 0.046 nM
IC50 (human IL-17A (human) [15]): 0.203 nM
IC50 (human IL-17F (human) [16]): 0.056 nM
IC50 (human IL-17F (human) [17]): 1.09 nM
B6: IL17MS0166 (bispecific antibody, part only; not given: linkers and anti-albumin Nanobody, not shown: small tags and cut ends)
chain, part: EVQLVESGGGLVQAGGSLRLSCGAAGGTFSSYATGWFRQAPGKEREFVAVFRWSDSHTAYADSVKGRFTISRDGAKNTLYLQMSSLKPEDTAIYYCTTATRPGEWDYWGQGTQVTVSSEVQLVESGGGLVQAGGSQRLSCTASGTIVNIHVMGWYRQAPGKQRELVALIFSGGSADYADSVKGRFTISRDNAKNTVYLEMNSLKAEDTAVYYCAAEIGYYSGGTYYSSEAHWGQGTQVTVSS

Emax, Cyno IL17A, HT-1080 bioassay [6]: 100%
IC50, Cyno IL17A, HT-1080 bioassay [6]: 0.29 nM
Emax, Cyno IL17F, HT-1080 bioassay [7]: 87%
IC50, Cyno IL17F, HT-1080 bioassay [7]: 8.3 nM
B7: SH-Fc-(GS)2-13E02 (Fc fusion, not shown: a dimerising Fc or GST; small tags and cut ends)
chain: EVQLVESGGGLVQAGGSLRLSCAASGRTYDAMGWLRQAPGKEREFVAAISGSGDDTYYADSVKGRFTISKDNAGITMYLQMNSLKPEDTAVYYCATRRGLYYVWDSNDYENWGQGTQVTVSS

koff [2]: 0.0057 s⁻¹
IC50 (human IL-17A (human) [3]): 0.056 nM
IC50 (human IL-17F (human) [4]): 0.047 nM
B8: IL17MS0154 (bispecific antibody, part only; not given: linkers and anti-albumin Nanobody, not shown: small tags and cut ends)
chain, part: EVQLVESGGGLVQAGGSLRLSCAASGRTFSSYVVGWFRQAPGKEREFIGAISGSGDSIYYAVSEKDRFTISRDNGKNTLYLQMSSLKAEDTAVYYCTADQEFGYLRFGRSEYWGQGTQVTVSSEVQLVESGGGLVQAGGSQRLSCTASGTIVNIHVMGWYRQAPGKQRELVALIFSGGSADYADSVKGRFTISRDNAKNTVYLEMNSLKAEDTAVYYCAAEIGYYSGGTYYSSEAHWGQGTQVTVSS
